Source: the supplement of paper PMC10201428
± gives the standard deviation of the averaged measurements.

B1: library; a variant is named by its letters at N, in order (parent)
chain: AATGTTGTTGATGCAACCATAAAGTGATATTTAATAATTATTTATAATCAGCAACTTAACCACAAAACAACCATATATTGATATNTCACAAAACAACCATAANTTGATATTTTTGTGAATCGAGTATTTCAGCAAAACTACTGCAGTAAGAA

Legend:
[1] = variants of: B1; assay: relative integration efficiency (T-LR orientation) vs wild-type transposon end (log2 (normalized fold change)); transposon end mutated: left end; higher = more efficient transposition; settings: with VchCAST RNA-guided transposition machinery (E. coli BL21(DE3) host, lacZ target)
Procedure, shortened: (§1)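 Each barcoded pool, 1549 left-end or 1849 right-end transposon variants in a pUC57 mini-transposon donor, went into E. coli BL21(DE3) with a T7-driven effector plasmid (CRISPR array, tniQ-cas8-cas7-cas6, tnsA-tnsB-tnsC). Plates contained 0.1 mM IPTG and were held at 37°C for 18 h. Input plasmids and genomic integration junctions were PCR-amplified and read by Illumina sequencing, with two biological output replicates and four reference barcodes. Relative integration efficiency is the fold change of output over input barcode abundance, normalised to the reference barcodes and log-transformed.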

[2] = variants of: B1; assay: relative integration efficiency (T-RL orientation) vs wild-type transposon end (log2 (normalized fold change)); transposon end mutated: left end; higher = more efficient transposition; settings: with VchCAST RNA-guided transposition machinery (E. coli BL21(DE3) host, lacZ target)
Procedure, shortened: as §1

Row | Variant | relative integration efficiency (log2) [1] | relative integration efficiency (log2) [2]
1 | CG T28A T82A T108A | -2.22 ± 2.1 | -1.09 ± 0.57
2 | CG T48G C49A | -0.72 ± 0.49 | -0.681 ± 0.47
3 | CG T28G A29C | -1.26 ± 0.97 | -1.24 ± 0.55
4 | CG T30A T31A T32A A33T | -0.351 ± 0.54 | -0.346 ± 0.29
5 | CG T42C | 0.252 ± 0.45 | 0.37 ± 0.039
6 | CG T42A | 0.162 ± 0.27 | 0.471 ± 0.051
7 | CG T42G | 0.0763 ± 0.34 | -0.115 ± 0.2
8 | CG T30G T31G T32G A33C | -1.21 ± 0.73 | -1.06 ± 0.5
9 | CG G117T A118C | 0.251 ± 0.35 | 0.0866 ± 0.029
10 | CG T48A | 0.212 ± 0.68 | 0.162 ± 0.22
11 | CG T48C | -0.224 ± 0.18 | -0.219 ± 0.15
12 | CG T48G | 0.0472 ± 0.93 | 0.24 ± 0.2
13 | CG T39G | 0.304 ± 0.45 | 0.00997 ± 0.055
14 | CG T39A | 0.147 ± 0.58 | 0.0624 ± 0.071
15 | CG T39C | 0.161 ± 0.47 | 0.0645 ± 0.011
16 | CG T5G T6G G7T T8G | < -10 | -6.89 ± 0.7
17 | CG T45A A46T A47T T48A | 0.244 ± 0.78 | 0.0806 ± 0.061
18 | CG T12A G13C C14G A15T | -0.874 ± 0.76 | -0.341 ± 0.43
19 | CG G24T | 0.871 ± 0.023 | 0.72 ± 0.19
20 | CG G26T A27C | -0.945 ± 0.26 | -1.68 ± 0.7

Row | Variant | relative integration efficiency (log2) [1] | relative integration efficiency (log2) [2]
21 | CG T30A T31C T32A | -0.303 ± 0.45 | -0.29 ± 0.22
22 | CG T9A G10C | -2.248 ± 0.0027 | -0.479 ± 0.16
23 | CG T25A | -0.158 ± 0.68 | -0.346 ± 0.3
24 | CG T25C | 0.0625 ± 0.14 | -0.137 ± 0.12
25 | CG T25G | -0.618 ± 1 | -0.455 ± 0.37
26 | CG G26C G80C G106C | -5.11 ± 2.5 | -6.9 ± 1.7
27 | CG T31G T32G A33C A34C | -0.805 ± 0.2 | -0.592 ± 0.32
28 | CG T56A | 0.188 ± 0.11 | -0.167 ± 0.0046
29 | CG T30A T31C A77C | -0.793 ± 0.14 | -0.48 ± 0.16
30 | GG T31A T111A | -0.483 ± 0.67 | -0.581 ± 0.56
31 | CG T32G A33C T86G C87A T112G T113G | -0.849 ± 0.54 | -0.843 ± 0.24
32 | CG T48A C49G | 0.449 ± 0.71 | 0.353 ± 0.18
33 | CG T25G G26T | -0.611 ± 0.7 | -0.737 ± 0.33
34 | CG G24C T25A | -0.543 ± 0.54 | -0.605 ± 0.37
35 | CG T35A A36T A37T T38A | 0.322 ± 0.34 | 0.354 ± 0.019
36 | CG T43G A44C T45G A46C | 0.536 ± 0.48 | -0.504 ± 0.27
37 | CG T32A T86A T112A | 0.255 ± 0.42 | -0.0963 ± 0.053
38 | CG T6G G7T T8G T9G | < -10 | -7.37 ± 0.95
39 | CG G24T T25G | -0.649 ± 0.2 | -0.561 ± 0.34
40 | CG T45G | -0.109 ± 0.19 | -0.0406 ± 0.053

Row | Variant | relative integration efficiency (log2) [1] | relative integration efficiency (log2) [2]
41 | CG T45A | 0.403 ± 0.63 | -0.0115 ± 0.062
42 | CG T45C | -0.0724 ± 0.056 | -0.326 ± 0.093
43 | CG T3G G4T | 0.453 ± 0.4 | 0.121 ± 0.041
44 | CG T30G T84G T110G | -2.2 ± 0.51 | -1.92 ± 0.8
45 | CG G51T C52A A53C A54C | -0.964 ± 0.62 | -0.488 ± 0.45
46 | CG T38A T42A T45A A47T C49A G51T C52T A54T C55T T56A T57A A59T | -2.39 ± 1.1 | -2.37 ± 0.87
47 | CG T5G T6G | < -10 | –
48 | CG T35A A36T | 0.24 ± 0.31 | 0.1527 ± 0.00087
49 | CG T48G C49A A50C G51T | -3.52 ± 2.9 | -1.55 ± 0.54
50 | CG T28A A29T T30A T31A | -0.974 ± 0.69 | -1.12 ± 0.46
51 | CG T39G A40C T41G T43A A44C A47G C49T G51A A53T C55G A58C A59G C60A | -5.96 ± 2.7 | -4.12 ± 1.1
52 | CG T38G T39G | 0.139 ± 0.043 | -0.161 ± 0.039
53 | CG G115T T116G G117T A118C | -0.131 ± 0.19 | -0.00966 ± 0.025
54 | CG T39A A40T | 0.255 ± 0.22 | 0.244 ± 0.039
55 | CG T8A T9A | -0.985 ± 0.14 | -0.297 ± 0.11
56 | CG T32G T86G T112G | -0.809 ± 0.9 | -0.686 ± 0.19
57 | CG T39C A40T T41G T43G A46T A47G C49T G51T A54C C55A | -4.29 ± 1.2 | -2.86 ± 0.84
58 | CG G24C T25A G26C A27T | -2.36 ± 0.61 | -2.38 ± 0.98
